Where a chain is given by its changes, count along the chain named. In names and notes the source's numbering stands.
B1: GLS3000 L27bW one-arm antibody (antibody, human IgG1, kappa, L234A L235A, N297A, name in Kabat numbering)
heavy: QVQLVESGGGVVQPGRSLRLSCAASGFTFSNAWMHWVRQAPGKGLEWVAQIKAKSNNYATYYAESVKGRFTISRDDSKNSLYLQMNSLKTEDTAVYYCRYVHYGAYYGVDAWGQGTTVTVSSASTKGPSVFPLAPSSKSTSGGTAALGCLVKDYFPEPVTVSWNSGALTSGVHTFPAVLQSSGLYSLSSVVTVPSSSLGTQTYICNVNHKPSNTKVDKKVEPKSCDKTHTCPPCPAPEAAGGPSVFLFPPKPKDTLMISRTPEVTCVVVDVSHEDPEVKFNWYVDGVEVHNAKTKPREEQYASTYRVVSVLTVLHQDWLNGKEYKCKVSNKALPAPIEKTISKAKGQPREPQVYTLPPSRCELTKNQVSLSCAVKGFYPSDIAVEWESNGQPENNYKTTPPVLDSDGSFFLVSKLTVDKSRWQQGNVFSCSVMHEALHNHYTQKSLSLSPDYKDDDDK
chain: EPKSSDKTHTCPPCPAPELLGGPSVFLFPPKPKDTLMISRTPEVTCVVVDVSHEDPEVKFNWYVDGVEVHNAKTKPREEQYNSTYRVVSVLTVLHQDWLNGKEYKCKVSNKALPAPIEKTISKAKGQPREPQVCTLPPSRDELTKNQVSLWCLVKGFYPSDIAVEWESNGQPENNYKTTPPVLDSDGSFFLYSKLTVDKSRWQQGNVFSCSVMHEALHNRYTQKSLSLSP
light: DIVMTQSPLSLPVTPGEPASISCRSSQSWVHSNRNTYLHWYQQKPGQAPRLLIYKVSNRFSGVPDRFSGSGSGTDFTLKISRVEAEDVGVYYCGQGTQVPYTFGQGTKLEIKRTVAAPSVFIFPPSDEQLKSGTASVVCLLNNFYPREAKVQWKVDNALQSGNSQESVTEQDSKDSTYSLSSTLTLSKADYEKHKVYACEVTHQGLSSPVTKSFNRGEC
B2: GLS3000 N28E one-arm antibody (antibody, human IgG1, kappa, L234A L235A, N297A, name in Kabat numbering)
heavy: B1 heavy
chain: B1 chain
light: B1 light with W29L, N33E
B3: GLS3000 N28F one-arm antibody (antibody, human IgG1, kappa, L234A L235A, N297A, name in Kabat numbering)
heavy: B1 heavy
chain: B1 chain
light: B1 light with W29L, N33F
B4: GLS3000 N28Y one-arm antibody (antibody, human IgG1, kappa, L234A L235A, N297A, name in Kabat numbering)
heavy: B1 heavy
chain: B1 chain
light: B1 light with W29L, N33Y
B5: GLS3000 N28V one-arm antibody (antibody, human IgG1, kappa, L234A L235A, N297A, name in Kabat numbering)
heavy: B1 heavy
chain: B1 chain
light: B1 light with W29L, N33V
B6: GLS3000 L33F one-arm antibody (antibody, human IgG1, kappa, L234A L235A, N297A, name in Kabat numbering)
heavy: B1 heavy
chain: B1 chain
light: B1 light with W29L, L38F
B7: GLS3000 N28I one-arm antibody (antibody, human IgG1, kappa, L234A L235A, N297A, name in Kabat numbering)
heavy: B1 heavy
chain: B1 chain
light: B1 light with W29L, N33I
B8: GLS3000 N28D one-arm antibody (antibody, human IgG1, kappa, L234A L235A, N297A, name in Kabat numbering)
heavy: B1 heavy
chain: B1 chain
light: B1 light with W29L, N33D
B9: GLS3000 L33V one-arm antibody (antibody, human IgG1, kappa, L234A L235A, N297A, name in Kabat numbering)
heavy: B1 heavy
chain: B1 chain
light: B1 light with W29L, L38V
B10: GLS3000 N30F one-arm antibody (antibody, human IgG1, kappa, L234A L235A, N297A, name in Kabat numbering)
heavy: B1 heavy
chain: B1 chain
light: B1 light with W29L, N35F
B11: GLS3000 N28Q one-arm antibody (antibody, human IgG1, kappa, L234A L235A, N297A, name in Kabat numbering)
heavy: B1 heavy
chain: B1 chain
light: B1 light with W29L, N33Q
B12: GLS3000 N30H one-arm antibody (antibody, human IgG1, kappa, L234A L235A, N297A, name in Kabat numbering)
heavy: B1 heavy
chain: B1 chain
light: B1 light with W29L, N35H
B13: GLS3000 L33D one-arm antibody (antibody, human IgG1, kappa, L234A L235A, N297A, name in Kabat numbering)
heavy: B1 heavy
chain: B1 chain
light: B1 light with W29L, L38D
B14: GLS3000 N30I one-arm antibody (antibody, human IgG1, kappa, L234A L235A, N297A, name in Kabat numbering)
heavy: B1 heavy
chain: B1 chain
light: B1 light with W29L, N35I
B15: GLS3000 N28W one-arm antibody (antibody, human IgG1, kappa, L234A L235A, N297A, name in Kabat numbering)
heavy: B1 heavy
chain: B1 chain
light: B1 light with W29L, N33W
B16: GLS3000 N28T one-arm antibody (antibody, human IgG1, kappa, L234A L235A, N297A, name in Kabat numbering)
heavy: B1 heavy
chain: B1 chain
light: B1 light with W29L, N33T
B17: GLS3000 N28M one-arm antibody (antibody, human IgG1, kappa, L234A L235A, N297A, name in Kabat numbering)
heavy: B1 heavy
chain: B1 chain
light: B1 light with W29L, N33M
B18: GLS3000 L33A one-arm antibody (antibody, human IgG1, kappa, L234A L235A, N297A, name in Kabat numbering)
heavy: B1 heavy
chain: B1 chain
light: B1 light with W29L, L38A
B19: GLS3000 N30E one-arm antibody (antibody, human IgG1, kappa, L234A L235A, N297A, name in Kabat numbering)
heavy: B1 heavy
chain: B1 chain
light: B1 light with W29L, N35E
B20: GLS3000 N28P one-arm antibody (antibody, human IgG1, kappa, L234A L235A, N297A, name in Kabat numbering)
heavy: B1 heavy
chain: B1 chain
light: B1 light with W29L, N33P
B21: GLS3000 N30A one-arm antibody (antibody, human IgG1, kappa, L234A L235A, N297A, name in Kabat numbering)
heavy: B1 heavy
chain: B1 chain
light: B1 light with W29L, N35A
B22: GLS3000 N28A one-arm antibody (antibody, human IgG1, kappa, L234A L235A, N297A, name in Kabat numbering)
heavy: B1 heavy
chain: B1 chain
light: B1 light with W29L, N33A
B23: GLS3000 L33P one-arm antibody (antibody, human IgG1, kappa, L234A L235A, N297A, name in Kabat numbering)
heavy: B1 heavy
chain: B1 chain
light: B1 light with W29L, L38P
B24: GLS3000 L27bY one-arm antibody (antibody, human IgG1, kappa, L234A L235A, N297A, name in Kabat numbering)
heavy: B1 heavy
chain: B1 chain
light: B1 light with W29Y
B25: GLS3000 N28L one-arm antibody (antibody, human IgG1, kappa, L234A L235A, N297A, name in Kabat numbering)
heavy: B1 heavy
chain: B1 chain
light: B1 light with W29L, N33L
B26: GLS3000 N28G one-arm antibody (antibody, human IgG1, kappa, L234A L235A, N297A, name in Kabat numbering)
heavy: B1 heavy
chain: B1 chain
light: B1 light with W29L, N33G
B27: GLS3000 L33I one-arm antibody (antibody, human IgG1, kappa, L234A L235A, N297A, name in Kabat numbering)
heavy: B1 heavy
chain: B1 chain
light: B1 light with W29L, L38I
B28: GLS3000 N28K one-arm antibody (antibody, human IgG1, kappa, L234A L235A, N297A, name in Kabat numbering)
heavy: B1 heavy
chain: B1 chain
light: B1 light with W29L, N33K
B29: GLS3000 N30G one-arm antibody (antibody, human IgG1, kappa, L234A L235A, N297A, name in Kabat numbering)
heavy: B1 heavy
chain: B1 chain
light: B1 light with W29L, N35G
B30: GLS3000 N30D one-arm antibody (antibody, human IgG1, kappa, L234A L235A, N297A, name in Kabat numbering)
heavy: B1 heavy
chain: B1 chain
light: B1 light with W29L, N35D
B31: GLS3000 L33E one-arm antibody (antibody, human IgG1, kappa, L234A L235A, N297A, name in Kabat numbering)
heavy: B1 heavy
chain: B1 chain
light: B1 light with W29L, L38E
B32: GLS3000 N28S one-arm antibody (antibody, human IgG1, kappa, L234A L235A, N297A, name in Kabat numbering)
heavy: B1 heavy
chain: B1 chain
light: B1 light with W29L, N33S
B33: GLS3000 N28H one-arm antibody (antibody, human IgG1, kappa, L234A L235A, N297A, name in Kabat numbering)
heavy: B1 heavy
chain: B1 chain
light: B1 light with W29L, N33H
B34: GLS3000 L33M one-arm antibody (antibody, human IgG1, kappa, L234A L235A, N297A, name in Kabat numbering)
heavy: B1 heavy
chain: B1 chain
light: B1 light with W29L, L38M

Target: T1, CD3ε homodimer protein (human, UniProt P07766 23-126, limits assumed)
T1 construct: also called CD3 (CD3ε)
T1 sequence (P07766 23-126 limits assumed): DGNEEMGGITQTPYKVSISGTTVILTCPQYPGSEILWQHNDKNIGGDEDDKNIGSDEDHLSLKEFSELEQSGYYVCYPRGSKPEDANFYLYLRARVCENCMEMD
Assay: SPR Biacore T200, CD3ε homodimer on chip;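 note: Light-chain single-residue variant antibodies injected over amine-coupled CD3ε homodimer on a CM4 chip at 25 °C, bound amount divided by that of the GLS3000-containing antibody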

Row | Binder | ratio of amount bound vs unaltered GLS3000
1 | B1 | 0.26
2 | B2 | 0.4
3 | B3 | 0.46
4 | B4 | 0.26
5 | B5 | 0.36
6 | B6 | 0.78
7 | B7 | 0.44
8 | B8 | 0.19
9 | B9 | 1.05
10 | B10 | 1.1
11 | B11 | 0.37
12 | B12 | 0.98
13 | B13 | 0.17
14 | B14 | 0.61
15 | B15 | 0.41
16 | B16 | 0.45
17 | B17 | 0.39

Row | Binder | ratio of amount bound vs unaltered GLS3000
18 | B18 | 0.85
19 | B19 | 0.44
20 | B20 | 0.36
21 | B21 | 0.5
22 | B22 | 0.25
23 | B23 | 0.3
24 | B24 | 0.25
25 | B25 | 0.39
26 | B26 | 0.46
27 | B27 | 0.83
28 | B28 | 0.44
29 | B29 | 0.47
30 | B30 | 0.34
31 | B31 | 0.72
32 | B32 | 0.32
33 | B33 | 0.42
34 | B34 | 0.93
